We go through one protein from publication doi:10.1101/2022.11.30.518474 (bioRxiv, 2022).

This series concerns the molecule itself. As to the kind of experiment: SEC; purified recombinant protein (40 μg in 50 μl) on a TOSOH G2000 SWXL column in hexokinase buffer (20 mM HEPES, 5 mM Mg acetate, 100 mM NaCl, 0.5 mM EDTA, 0.5 mM DTT) without glucose, no ATP, 1 mL/min. For orientation: Size exclusion chromatography separates by hydrodynamic size, large species first.

B1: Recombinant Hxk2, wild type, C-terminal 6-histidine tag, from E. coli (enzyme, S. cerevisiae, UniProt P04807 1-486, looked up)
chain: MVHLGPKKPQARKGSMADVPKELMQQIENFEKIFTVPTETLQAVTKHFISELEKGLSKKGGNIPMIPGWVMDFPTGKESGDFLAIDLGGTNLRVVLVKLGGDRTFDTTQSKYRLPDAMRTTQNPDELWEFIADSLKAFIDEQFPQGISEPIPLGFTFSFPASQNKINEGILQRWTKGFDIPNIENHDVVPMLQKQITKRNIPIEVVALINDTTGTLVASYYTDPETKMGVIFGTGVNGAYYDVCSDIEKLQGKLSDDIPPSAPMAINCEYGSFDNEHVVLPRTKYDITIDEESPRPGQQTFEKMSSGYYLGEILRLALMDMYKQGFIFKNQDLSKFDKPFVMDTSYPARIEEDPFENLEDTDDLFQNEFGINTTVQERKLIRRLSELIGARAARLSVCGIAAICQKRGYKTGHIAADGSVYNRYPGFKEKAANALKDIYGWTQTSLDDYPIKIVPAEDGSGAGAAVIAALAQKRIAEGKSVGIIGA
notes: Hexokinase 2 (Hxk2) of S. cerevisiae; also called WT Hxk2; wild-type Hxk2; source: E. coli (pET14b), purified (Ni-NTA)
One may read the stoichiometry N as the number of molecules, sites or subunits per partner or assembly. For B1, the “stoichiometry N” value is 2.
